The DeepSol protein solubility set

Experiment: soluble on expression in E. coli; label from the status in PepcDB or PDB records

| Sequence | soluble on expression in E. coli |
| --- | --- |
| MSLEITNPILTGFNPDPSLCRQGEDYYIATSTFEWFPGVRIYHSRDLKNWSLVSTPLDRVSMLDMKGNPDSGGIWAPCLSYADGKFWLLYTDVKIVDSPWKNGRNFLVTAPSIEGPWSEPIPMGNGGFDPSLFHDDDGRKYYIYRPWGPRHHSNPHNTIVLQAFDPQTGTLSPERKTLFTGTPLCYTEGAHLYRHAGWYYLMAAEGGTSYEHAVVVLRSKNIDGPYELHPDVTMMTSWHLPENPLQKSGHGSLLQTHTGEWYMAYLTSRPLRLPGVPLLASGGRGYCPLGRETGIARIEWRDGWPYVEGGKHAQLTVKGPQVAEQPAAVPGNWRDDFDASSLDPELQTLRIPFDDTLGSLTARPGFLRLYGNDSLNSTFTQSTVARRWQHFAFRAETRMEFSPVHFQQSAGLTCYYNSKNWSYCFVDYEEGQGRTIKVIQLDHNVPSWPLHEQPIPVPEHAESVWLRVDVDTLVYRYSYSFDGETWHTVPVTYEAWKLSDDYIGGRGFFTGAFVGLHCEDISGDGCYADFDYFTYEPVEGHHHHHH | not soluble |
| GMGMEHKTYEADLFVWCQQQADGLRALSRSRRDLPDDLDLEHIAEEIEDMGRSELREATSLVRQICVRVIMAMSAPEAPDRARWRSEVVSWHNLLLDTITPGMIDRIDIGVIWRRAVSEAKAALIEINVAPQAGLSFQAPLPADHFLDEDFDYDATVARLGPTA | soluble |
| MTTSALPRQAFGEMADTVILLEKATTTPICEGMNRLLASFQALYLQYQKHHFVVEGAEFYPLHQFFQDCYEQVQDHVHALGERLNGLGGVPVAGFQQLAALCCFTPEPEGAFNCRQMLSNDLQAEQAIIGVLRQQATQAESLGDRATAYLYDQILLKTEERAYHIGHFLANDSLKVLKVKLADGREHHHHHH | soluble |
| MGSSHHHHHHSQDMDKNELVQKAKLAEQAERYDDMAACMKSVTEQGAELSNEERNLLSVAYKNVVGARRSSWRVVSSIEQKTEGAEKKQQMAREYREKIETELRDICNDVLSLLEKFLIPNASQAESKVFYLKMKGDYYRYLAEVAAGDDKKGIVDQSQQAYQEAFEISKKEMQPTHPIRLGLALNFSVFYYEILNSPEKACSLAKTAFDEAIAELDTLSEESYKDSTLIMQLLRDNLTLWTSDTQGDEAEAGEGGEN | soluble |
| MKEDWPEPVKEYNTGQVLFDRLELTRTNEEENLAVWDMIAWYGGDYHRAVFKSEGENVQDDGEPTDLERAELLYGYLVSPFWSFQAGIGTRGTLSSDASMENYAVVSFMGLAPYWFEMDNSLMVNEEGDVQFVSETEYEWQLTQTSYLQPRIELTANLTDSDKYERQSGLSNLRVGLRYRHEISREFAPYIGVYWNGALGNTADEMKRMGKDTTETGVVLGARVWFLEHHHHHH | not soluble |
| NWLTADGAAGPSGEGGFAAEKDRYHLYVSLACPWAHRTLIMRKLKGLEPFLPVSVVNPLMLENGWTFDDSFPEATGDTLYQHDFLYQLYLHADPHYTGRVTVPVLWDKKQQTIVSNESAEIIRMFNTAFDGLGARAGDYYPPALREQIDELNGWIYDNVNN | not soluble |
| MGSDKIHHHHHHMNKQTEHDTREHLLATGEQLCMQRGFTGMGLSELLKTAQVPKGSFYHYFRSKEAFGVAMLERHYACYHQRLTAHFTSGPGNHRDRLLAWYQETLKQFCQQGAISGCLTVKLSAEVCDLSEDMRSTMDKGAQEIMALLARALEDGRNSHCLHFTGQPLPQAQVLYALWLGANLQAKISRSAAPLENALAHVKTIIATPEQ | not soluble |
| MSLKGTYEKSIHIVKKNKYKTIDVVFGNLKEGIPLAEKSINHGTRIIISRGGTYNMLKATYNIPIVEIKVDAYDIIKSYKEVKNSNEPFGIIGFNNVIYGFDIIEEILNKKITMIEIEKEEEIYDAIEKYRKKGINTYIGDTTVAHIVKRLNCKGILIESREENILRAIQQAEQILEATKDEQKREGHHHHHH | not soluble |
| GKHTVPYTISVDGITALHRTYFVFPENKKVLYQEIDSKVKNELASQRGVTTEKINNAQTATYTLTLNDGNKKVVNLKKNDDAKNSIDPSTIKQIQIVVK | soluble |
| MAHHHHHHMELGTPNVLPGYDASKSANGSENAKTIISDVNANYNAERKNHTVTHNDEKEGTTHDGGGDEPPQTHSNTERDKEDKIKFEKKKKKSDKLKKEREKEIVVAYWLKGIVKILNAGLKNGDIKGSNFIGKKIAEVLKKVVEISHWNNVYDLIEIIKYLGKEIIRNNKMYFIIPNIIRRVLTIIRTEHFKQLYLYNNNYVDNLNKNNNFLVDKNTNKCINSKYVYEREIKNFEQSFSFYFENNSKKNTYHIPATNTLRHSIIEGITELIADIDTSWGETEQRTSYDLFMENDVILTMGYSVGVEKFLKNINKKKDGISVIVVGGDINRNGFRMAQLLSEDGVDTTYISDSAVFAVIPKVTKVVLGSVAVSSSGGVITKIGGYNIACSAQFNSKPVTIVLPLFKLINDPFYDPIRQNELQPGPSMIYNDADNLYVRIPKYDYIPEHLITLYITEIGPVDSFQLYNITKRTYHPDDLDLSFD | not soluble |
| MPKSDTKQKKRRSNKNRLRIKRARLFGPKDIDQVKEDIESQKKIEYDPELPGGGHFYCCECDRHFITEKVLMEHKRSNPHRRRAKEVREVAHSQRDAEWAVGLT | not soluble |
| MCILFIALNAHPQYPLIICANRDEFHHRPTAPAQFWPPERNMLAGKDLQAGGTWFGVNTQGQLAGVTNLRVAQKNQEPMRSRGELVIQALNSGSLICPNWLVEHAQDYQPFNLVFGQGTNLYCFNSIRRETVKLTQGFHAISNGAMDDVWPKMAKGQRSLEALIQQSAQLEVESLIKLMQDDSQPQDNELPDTGVGLEWKRRLAAIYIRHPDYGTRSTSILLQNAQGEIQFTEVRYDGKGRRLGQQDFHFTLPPQLPPEPDCLVVFLEHHHHHH | not soluble |
| MSKLVGNLIPNTFFITKGSGESDLELHAGSYHMALFDAGISDFNIMTYSSVLPATAHLATMDEIDLPPFGSELKTIMAVSHGYQDEFVSAGVVYAWMYKDENFDEKAGGLVCEVSGRYRIEELESRLIRVINDLHQKTYSQYYLGELNFITEGITIEKRYGTALAGLCFMDFIQPEVQKK | not soluble |
| MGSDKIHHHHHHMFTKKSRNIYKAGSLCEFAKAFFIGGIDVENVVKHALLKEVEQLMEQYIGGLKEIFLDEKIVGVYIYGSIALGAFHAETSDVDFVTVISDPVNEAEKQQLVELHKKLSGSTLGKRMDGMYIPLADLGKYNDEMNEYVYCADGKANIGHWDINAVTWWTLKNQGITVIGKEAEDLSFQIRWDDVVNTMKYNVEQYWSGKAKQPYLFFIEEWVESAVVTMGRILYTLDHKTIVSKDRGLQYLLEHSSEEWGPLLKEVERIRQNPKEKRMLSRWRRADMTKRFLLHLIETCRGKWTIQ | not soluble |
| MLGAIIGDLVAWTWERDQSLFYQRLIAPKANISEVGLAVLGVTEPMLRGSSEVEWESLYLHIREIIQRDRITDISPDFNDWTEAGHQAVIPKEVKSVMHLAVSIVGGWCDAPLETTLAYSRRFHGGKEEYYLTQIAEIIYRLRQGATKQEAMEDIHYIKNWKPQGKVSLLGYAHHAWQCFLQSWDFTSALHNAMRCSYGDKHLLGALTGAIAEAMYSCEYGFIKEKYGKGSDTQFMLSLPKELSGLYRVELGLIESNKELLRTFFPKNRALTNVEVWQWFDLPNIVAHKPLSEREYQRIRLSHDTGWDARYGIYWDDGWYYVYCSGFLLNRFRVEEMQDHTYRITRIQYCTQHEEGKAYNALIKALSLDGLDMSAYSQYKD | not soluble |
| MGSDKIHHHHHHMSWEISGTYVGSCTCQLICPCPVDGLPTGPDGECRGLNVFHIASGKMDDTDLSGVDFAFANWFPSHLTAGGWKVGAVVDDAASDAQVRALGSILRGEAGGPFGDLAALYGEWLGLERAGVKFSGGDTPAGSVADRVVITFEPLPGPDGGVTTVKNAMYGFAPEFQIGKGTGHPDLFGLAFDGVYGETSDFSFASEMAEGAPKGRG | not soluble |
| MGSDKIHHHHHHMHKTRYNALSVAFQISPRGPLLIKAGGISANPTLPDMQFVRTYHPYYGYTVYIPGSSLKGVVRGFVEKALRTLDDHTSWQWACPTFPDEDESCAKKLGKEENSATIYKNSCGACRLFGHTRLKGRVAFTDLLPVDEVKTEIRYGVAISRLSHAVAHGPFEMEVAVAGTFEGYLILENFELWQLGLLVLAFQGMNSGLLQIGFGKNRGFGEVAVQVQEARLDEVTSGMEIGLWRGLADFVSDEEKTRYGLSTTFTLNGMPDPLRTEPLGLYTRRIYDPKRWDEVAQRVTDKLGTT | not soluble |
| GSSNSHRGLAPTNVDFAFNLYQRLVALNPDKNTLISPVSISMALAMVSLGSAQTQSLQSLGFNLTETSEAEIHQSFQYLNYLLKQSDTGLEMNMGNAMFLLQKLKLKDSFLADVKQYYESEALAIDFEDWTKASQQINQHVKDKTQGKIEHVFSDLDSPASFILVNYIFLRGIWELPFSPENTREEDFYVNETSTVKVPMMVQSGSIGYFRDSVFPCQLIQMDYVGNGTAFFILPDQGQMDTVIAALSRDTIDRWGKLMTPRQVNLYIPKFSMSDTYDLKDVLEDLNIKDLLTNQSDFSGNTKDVPLTLTMVHKAMLQLDEGNVLPNSTNGAPLHLRSEPLDIKFNKPFILLLFDKFTWSSLMMSQVVNPA | soluble |
| MISDRPGLPGEDMRLALLSFENYLLANRNTEKPVLHIALSPAPEDKLTDEQLAELAQNYMQKMGYGDQPYIAYKHGDTHNTHIHIVSVCVDEEGRKINDSFEHRRSMTACRELEIDFGLRNGADMEERNQKAEMKKVDATQGDVRHQIGNTLKAVLESYRFQTFGEYSALLSTLNIEAKQVRGEFKGEPYTGIIYSATDDSGKVVSPPFKSSRFGKRFGNERLEKRMLSHTRDFKDGKWAPTIHAQVVYAMRHARSREELAGLLKKARIDAVFRENEQGRIYGVTFIDHNRREVFNGSRMGKEFSANIYNELFKWWDGIPATERSAHTGTELWQHHSHKAESGSPLEQAASIFSMETNPVDYGEEALARRMKKRRKAKRKSRGI | not soluble |
| MSLNLLALPLRSEVELADARTRARHIAELLGLGNQDQVRVATVVSELARNVLLYAGSGQVTFSVRDEAGRSTLLIEVRDQGPGLGHLDEVLGGQYRSKTGMGVGLTGTRRLMDEFDIQTAPGKGTVVRVGKHLPAVVGDAEQRRVAEVLGSSGPRDLLTALSVQNRDLLETLAALNEREERLQVLNQELQDTNRGVVALYAELEEKAERLREANGLKTTFLSYMSHELRTPLHSMLGLARILSGQLDGPLNPEQLKQVQLLQGAAGDLLEMVNGLLDLAKMEAGKTDVDVTTFEVRELFGTLRALFLPLLDNPAVNLIFEDAAGFPPLTTDQRKVEQVLRNFIANALKFTAAGEVRVTAQLLPSGDRVRFTVQDTGIGLSDEEQAQLFQDFSQVGRPGRPAGTGLGLSIARKFTELLGGRVGVQSAPGAGAEFSAELPVVYPGVGAAKRPRALLIDDSEADRYVLTTLLTRAGYEVDEVAYAEPGLEQARSGAYDAVVLDLNLPDRSGLDVLRALRENAGTRSLPVLVVIAAALDAAERAALETLGASVHLKEALYQDEQVLFASLPSGSVHYGEAEGHHHHHH | soluble |
| MGSSHHHHHHSSGRENLYFQGHMHANIRYSFGGDEHLFAEVAEAMSLEAFFRGMAITRAIEALQLPGVLDVCLANASFQVRFDPDRLAPQALLETVRGLEAEAVAARSIETRIVEVPVLYNDPWTHETLMRFRDRHQDPDSTDLEYAARINGYADVQAFIQAHSGTPWFVSMVGFVAGLPFMYQMVERERQLQVPKYLRPRIDTPKLTLGHGGCFGCIYSVRGAGGYQMFGVTPAPIFDPRQGLPYLEESMVFFRAGDIVQFRPIERTEYEHMAAEVESGTFDLRIRPVSFDLDAFLADPRGCTQHLQEVLHVD | soluble |
